These results are taken from the DeepSol protein solubility set.

This data set is described as follows: soluble on expression in E. coli; label from the status in PepcDB or PDB records.
Turning to “MCDKLGGVAIAVQGALFEHNERRQLGDGAFIDIRSGWLTGGEELLDALLSTVPWRAERRQMYDRVVDVPRLVSFHDLTIEDPPHPQLARMRRRLNDIYGGELGEPFTTAGLCYYRDGSDSVAWHGDTIGRGSTEDTMVAIVSLGATRVFALRPRGRGPSLRLPLAHGDLLVMGGSCQRTFEHAVPKTSAPTGPRVSIQFRPRDVR”, the “soluble on expression in E. coli” value was “not soluble”.
In the case of “MSLARSVVVSAEAVYSHEGEYVGDHVLVDEGLVKSISRGEPHVSVGKRVAVKGFLLPPLVDAHLHMRSLGASFRIVNLKGASSPEEVAKRLAAANSPIAVGRGWNEEEFRPGSRLDRRILDSYLGEKPALAVRICGHVAVANSAFIRESGVDKLFPNLVDRERGLLLEDAVSYAVSVAMKTYNNEELLRDAASALASVGVFGVSSMACSEEEVRALSLIGDALEVRVACYLRRGVEPPPKRAGARWSIVGVKLFADGSLGGRTAYLRRPYISGENEGWRGLKLLSSRDIAEEAVSNSHRGLATAVHAIGDAALDEVLEGFSNAISRGVEPGMLRVEHASLAWPNQIDRLASLRVWTVVQPLFRVSDWWLESRVGSDMLQAAYPFASMLRAGVKLALSTDAPVETYDPAETFKAAVGLCSSRLCRESESLTPRETLKLYTLNSALASGGPVAWLGRLRRGAPALFAVANVDVLNSGRKELEKLKFRGLNLAKEGHHHHHH” it was “soluble”; in that of “MQNPQNLIWIDLEMTGLDPDRDVIIEMATIVTDSDLNTLAEGPVIAIHQPEEILAGMDEWNTRQHGQSGLTQRVRESTVSMAEAEAQTLAFLEQWVPKRSSPICGNSICQDRRFLYRHMPRLEGYFHYRNLDVSTLKELAARWAPQVRESFKKGNTHLALDDIRESIAELRHYRDHFIKL”, “not soluble”; in that of “VDHLHIVGDVYDRGPYPDKIMDTLMNYHSLDFQWGNHDILWMGAASGSRVCAANVIRISARYLNLDILEDSYGISLRPLALFADEIYKNDPCTYFQPKNEDNLNYSKAEITQIARMHKAISIIQFKLEGEIINRRKEFDMNHRLLLQMIDYKKGTIHLKGKDYQLLDTHFPTIDPNDPYKLTKEEKELIEKITASFKNCRRLQKHVQFLYSKGSMFLTYNGNLLYHGCIPLYEDGTFMEMKLRGENFSGRELLEQFEILTREAYVRKPGTKEKKYACDIVWYLWTGAVSSLFGKSEMTTFERYFIAEKETHKEEKNPYYKLRNEETICKQILEEFGLDGECGHIINGHTPVKEGKGESPIKANTKMLVIDGGFAKAYHKETTLAGYTLLYNSY”, “not soluble”.
In the case of “MSDANPVFADYFKSWYGTYKIPGKSRTTVVRYETIYKKLNAYYGKAKLAKVTRKSYQIFMNEYGKKHAKDTVYKTNGSIRSCVRDGVADGIIQKDFTQKINLTWNLEHHHHHH” it was “not soluble”; in that of “MPSPSGGWGCGGTWARGVDGARLFSIHHQAVRPNLSTISPPKEPPMIEVRHLCKSFARKPAVQDISFSIPAGEIVGYLGPNGAGKSTTIKVLTGLLVPDSGEVRVGGLVPWKQRRQHVARLGAVFGQRTTLWWDLPVRESLELLRHVYRVPAARFAENLAGFTELLELGPFLNTPARALSLGQRMRADLAAALLHDPELLFLDEPTVGLDVVAKERIREFVKAVNAERGVTVLLTTHDLGDVERLARRVMMIDTGRLLFDGPLAELQARYGGERELWVEFEKAPAQPALPGLTLLGQDGPRVRYGFSGAAAAPIAQVTALAPVRDLAVKEPEVEATIRRIYEGNLLGSRSVREGLEHHHHHH”, “not soluble”; in that of “MSLRDYAEIAASGILRAVTEYNSISFYADGDTVSGFHYELLHAFAHSKGLKPEITPEMSFSKRLEDVQKGTYDILANSTVVTTEYKDSLLFTRPIILNKQVLVQRKPEKENDSLYIHSQLELARKTLHLVKNSPAILRIHNLSNEIGDTIYIKEVEKYGQEQLLAMVAHGDIDYAVCDESIAKASINDFPQLDIETAISFSQFYSWGVSKHSPILLDSLNSWLNDYVKTPAFKLLRKKYYNNEGHHHHHH”, “soluble”.
The result for “MVGNPALAELLRAPRLIPWRNWSGAQSCLPLAREAPKDLDELVRIIRQASGRIRPVGSGHSFSALVPTDGTLLSLAYFSGLLSHDSVTLQAEFGGGTPMSQMGAPLKEIGQALVNMADIDYQTLAGAIATSTHGTGVGFGSYSAQVRGLQLVTASGEVLECDAKRNVEVFDAARVSLGALGVVTRVRLQNRAAYRLRERQWIARTEELLEDVEKNTRENQHWEMLVVTHSDYALSIALNETDEPKTPPLDPAKEGGNEFVGLIEGLDKYLSDFPETRRTLLNSLRHFARFDERVDDSYAVYANVRNVRFNEMEYSVPAEHGPACLREILALIRDKDLRTWFPIEYRYVKADDIPLSMFEGRDSCSISVHQHYSMDHHNFFAAVEPIFWKYAGRPHWGKLHGLNAHQLQGLYPRWKAFAEVRQALDPRGRFLNAHLSSILGVTKLAAALEHHHHHH” reads “not soluble”; that for “STRDDDDDEDDEEEEDSGAWGRESYAFDGFHPTEEFGFSFSPRGGMRFHGNFGFDDLVRDFNSIFSEMGAWTLPSHSPELPGPESETPGVRLREGQTLRDSMLKYPDSHQPRIFEGVLESHAKPESSKPAPDWGSQGPFHRLDDTWPVSPHSRAREDKDLDSQVSQEGLGPLLQPQPKSYFKSISVTKITKPDGTVEEHRTVVDGEGRRETTVTHQEAHDSSRSDPDPPRSSALDDPFSILDLLLGRWFRSR”, “soluble”.
For “MSLENIRNIAVIAHVDHGKTTMVDELLKQSGTFSEREQISERVMDSNDIEKERGITILSKNTAINYKGTKINIIDTPGHADFGGEVERVLKMIDGVLLLVDAQEGVMPQTKFVVKKALSLGLKPIVVINKIDKPAADPERVINEIFDLFVALDANDEQLDFAIVYAAAKNGYAKLDLNDESDNMEPLFKTILERVPAPSGSDENPLQLQVFTLGYDNFVGKIGIARIFNGVVKKNQSVMLAKADGTKVNGRISKLIGFMGLEKMDIEEAGSGDIVAIAGFEALDVGDSVVDPNNPMPLDPLHIEEPTLSIVFSVNDGPLAGTEGKHVTSNKIAERLEAEMKTNIAMKYESTGEGKFKVSGRGELQITILAENMRREGFEFCMGRPEVIVKVEDGVKTEPFEHLVIDVPEEFSGAVIEKLGKRKAEMKTMAPTGDGQTRLEFEIPARGLIGFRSQFLTDTKGEGVMNHSFLEFRPFSGAVEKRNNGALISMENGVALGYSLFNLQERGVLFIEPQTKVYTGMIIGEHSRPNDLDVNPIKGKNLTNVRASGSDDAIKLVPPRKLSLERALEWIEEDELVEVTPVNVRVRKRYLDPTQRKRMEKAKEGHHHHHH”, the “soluble on expression in E. coli” value is listed as “soluble”.
In the case of “MDFEKIRKWLEITNEYKQSDFWTNVLKYKAPEHFFDSEASTFVYDFYQDEEYNFIIVEMPGVYEEELTIRLLSKTQLLIKGTITPVFPAEMEVLRERYYGEIERIIQLPEAAETHLLQIQLLNGLLHISYPRQVETVAFNKGLLEHHHHHH”, the “soluble on expression in E. coli” value is recorded as “not soluble”.
Take “MSLNRNAILSKRQKQFIERVAWGASYKEVADFFHVSWSTVDNTLRNAKTKLGLSKVTELGAWWFCTNYGISFDLSPIARQCTAGIILFLFSLGEVTTITDASYTMQIVRRTRTEYRIRRHETSIYQPYIINEGHHHHHH”: the “soluble on expression in E. coli” value is reported as “not soluble”.
In the case of “KEFFLAKHAEQKKRHHKYNDTEYNLEPNVKGSPGGLRDIQTILWVARRQYGTLNLHALAGEGFLLGSENALLASSQEFLWKVRYALHMLAGRSEDRLLFDYQVRIAGLLGYEDNDAKLAIERFMQKYYRVVMSIAELSDLIIQHFEEVILSDDDGTPQPINSRFQLHDGYIEATNPNVFRRTPFAMLEIFVLMAQHPEIKGVRADTIRLL”, the “soluble on expression in E. coli” value is given as “not soluble”.
“MAHHHHHHMNLNVSKDVNNYMKINGIIKKVDIKRYYNKKLNNWSYEDNAKEFDKKDEKEYGSKYEYNNKFINEEEKKDEEKKYRYDEKIHKGLYSEDNSTSMNNRYNNNESTYKMPKEILNRHEKIDLNSLPIDEEIINNLKIILNIEKLYMYQYIIYNEILKNSKHLLIYNKTGTGKTLSYLLPLIQKLINDKFDCNKKVLIITQNIYLCKQLYIYILSIYPTLNVCILSDEKESYNMNNNINNDIIVNIKRNNINPNDKENNDMCDEKYGIHFYLCTPNKLEYFIKNYKNKSRNDKNVMNNILNNINTIVIDEFDYIVEYRKNILNFFFKKDLFNEIHNNNNIRDKNRFNHDIFNKSNYNIYLFTANINEVIKKKIYEHLNGFVFFDFINGIKEHIQKQVAEQHNFNIDVLKNSENVVQLLNKENKNESLCNLNITHFVCKINSASKYKYVCYFLEEFFFHKQKISQKVYNDMVYDEYDKLNYRNMIPMEENKFVNNSEKEGNMKRSNADKINKCIIFANTKEEVEKLYEISLLKPHAVMMHSELLTIQKNENINLFKVGKKNVLITTDIISRGLDIDNVIFILNYSPPTSPNDYIHRSGRTGRGKEKGICLTMYHKYEYRNVDKIMKYTKNKFEVILCPK”: the “soluble on expression in E. coli” value is listed as “not soluble”.
With “MGSDKIHHHHHHMNETNFDWDDLRLFLAVAREGGLAAAAASTGKSAPTLGRRMLNLERRLGSDLFQRMARGYALTEDGQHLLAKAARLESLVLPITAIDPEQAIPVVKVSAGSWVTHLLCANVSEIIGSDRIRLRFIASDDVADIGRREALIGIRNHRPEGSGLAGRRITRVRFAVYARNRKVNTWARVIATTPSAKWVREEARTADAIEVTSPRNALDLALAGTARVVLPTFIGSQFDTLKQVSPLIGDLEHEQWLVTHHEDRFVPQVRKVIDRIYLILKQAKTSS”, the “soluble on expression in E. coli” value is listed as “not soluble”.
For the sequence “MGSDKIHHHHHHLAIINDYWSTQAEAFTEISVDELTSEKNALWKSILKPFVQTDRKLEILDVGCGAGFFEIFLSCLGHHVTAVDFNGKMLAEARKNIEKLGRPELTKLMQMDAQNLAFQDSVFDIVISRNMTWVLENPQRAYGEWLRVLKPHGKLINFDANWFLHLRDDTARRNFEEGQAAVVEHGFELKESDHGGELDNIFRELPLSGCWRPQWDFMTLANMGCEEIAVKFSLPKGLYDEYYEQLYKAIPTFMLCAVKTG”, the “soluble on expression in E. coli” value is on record as “not soluble”.
Turning to “MVPCWNHGNITRSKAEELLSRTGKDGSFLVRASESISRAYALCVLYRNCVYTYRILPNEDDKFTVQASEGVSMRFFTKLDQLIEFYKKENMGLVTHLQYPVPLEEEDTGDDPEEDTVESVVSPPELPPRNIPLTASSCEAKEVPFSNENPRATETSRPSLSETLFQRLQSMDTSGLPEEHLKAIQDYLSTQLAQDSEFVKTGSSSLPHLKKLTTLLCKELYGEVIRTLPSLESLQRLFDQQLSPGLRPRPQVKG”, the “soluble on expression in E. coli” value was “soluble”.
The result for “MSEENRVGSKIRQLREARDMTVEELAEASQSSSELIQQLENGALVPSLTPLLKIARALGVRLGTFLDDMPQSGPVLVRSGLSENVVRFSGKTERPKKSALEFYSLASDKADRHMEPFIIDIHPSPEESHTLSSHEGEEFIYVLSGEIEIFYGKDVHRLSEGDSIYYDSIVPHDVHAAGKEDARIMAVVYAPL” reads “not soluble”; that for “MSLDISKKSLLTPAEAAKLLHVAPTTIRHWAQIGRLPFISTPGGHRRFDRNDILSLMSTPKINVKNDFSILIIEDDKEFADMLTQFLENLFPYAKIKIAYNPFDAGDLLHTVKPDVVMLDLMMVGMDGFSICHRIKSTPATANIIVIAMTGALTDDNVSRIVALGAETCFGKPLNFTLLEKTIKQLVEQKKATSEGHHHHHH”, “soluble”; that for “MRFVMPGDRIGSAEEYVKGEGVYEEGGELFAAVAGKLIIKDRVAKVESISPIPEIVKGDVVLGRVVDLRNSIALIEVSSKKGENRGPSNRGIGILHVSNVDEGYVKEISEAVGYLDILKARVIGDNLRLSTKEEEMGVLRALCSNCKTEMVREGDILKCPECGRVEKRKISTDYGKGEW”, “soluble”.
